The values below come from PMC5852081, “The preprophase band-associated kinesin-14 OsKCH2 is a processive minus-end-directed microtubule motor” (Nature Communications, 2018).

Data set [1] has as its target GFP-OsKCH1/KCH2 (O. sativa) (UniProt Q0IMS9). Put plainly: single-molecule photobleaching (TIRF microscopy); GFP-tagged motors bound to surface-immobilized microtubules in the single-molecule motility buffer without ATP, room temperature; photobleaching steps counted.
The target of data set [2] is GFP-OsKCH2(289–720) (O. sativa). The data set is described as follows: sucrose gradient centrifugation; 5–20% sucrose gradient in BRB80 with 25 mM KCl, 150,000 x g, 4 °C, 18 h; fractions by SDS-PAGE; standards CA, BSA, AD, amylase, apoferritin.
Data set [3] has as its target GFP-OsKCH2(289–767) (O. sativa). The data set is described as above.
The target is the same in data set [4]. The data set is described as follows: single-molecule photobleaching (TIRF microscopy); GFP-tagged motors bound to surface-immobilized microtubules in the single-molecule motility buffer without ATP, room temperature; photobleaching steps counted.
The target of data set [5] is GFP-OsKCH2(289–767)^T (not stated | O. sativa). The description is as above.
Data set [6] concerns the molecule itself. Put plainly: not stated; oligomeric state of GFP-OsKCH1(292–744), Supplementary Fig. 5d, e; legend not shown.

Regarding “GFP-OsKCH1/KCH2 (from UniProt Q0IMS9 292-705) (domain or fragment)”, in data set [1], the stoichiometry N was 2.
In data set [2], “GFP-OsKCH2(289–720) (domain or fragment)” registered a stoichiometry N of 2.
In the case of “GFP-OsKCH2(289–767) (domain or fragment)”, the stoichiometry N in data set [3] and in data set [4] was 2 each time.
In the case of “GFP-OsKCH2(289–767)^T (domain or fragment)”, the stoichiometry N in data set [5] was determined as 4.

B1: GFP-OsKCH1(292–744) (domain or fragment, O. sativa, UniProt Q0IMS9 292-744, looked up)
chain: GEVKQFQLEAQTNFDVQQKQIQELKGALSFVKSGMEQLRLQYSEEFAKLGKHFYTLSNAASSYHKVLEENRKLYNQIQDLKGNIRVYCRVRPFLPGHRSLSSSVADTEERTITIITPTKYGKDGCKSFSFNRVFGPASTQEEVFSDMQPLIRSVLDGFNVCIFAYGQTGSGKTFTMSGPKVLTEESLGVNYRALNDLFNIKAQRKGTIDYEISVQMIEIYNEQVRDLLQDGGNRRLEIRNTPQKGLAVPDASIVPVTSTADVVELMNQGQKNRAVGSTAINDRSSRSHSCLSVHVQGKYLTSGAMLRGCMHLVDLAGSERVDKSEVVGDRLKEAQYINKSLSALGDVIASLAQKNSHVPYRNSKLTQLLQDSLGGQAKTLMFVHVSPELDAVGETISTLKFAERVASVELGAAKANKEGSEVRELKEQIATLKAALAKKEGEPENIQSTQSSP
notes: codon-optimized synthetic cDNA; source: E. coli BL21 Rosetta (DE3), purified (Talon beads); not shown: GFP, N-terminal, kept
B1: the “stoichiometry N” value in data set [6] is 2.
